# Results: the RNAGym collection of RNA variant scans (doi:10.1073/pnas.2313332121)
# Variants at the floor of the assay were thinned out.
# B1: TPR 5TU (parent)
# chain: GGAUCUUCUCGAUCUAACAAAAAAGACAAAUCUGCCACAAAGCUUGAGAGCAUCUUCGGAUGCAGAGGCGGCAGCCUUCGGUGGCGCGAUAGCGCCAACGUUCUCAACUAUGACACGCAAAACGCGUGCUCCGUUGAAUGGAGUUUAUCAUG
# Variants of: B1
# Assay: polymerase ribozyme fitness, log enrichment relative to wild type (log ratio); higher = more active; in vitro selection for triplet polymerase activity
# Procedure, shortened: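 Only genotypes with ≥10 input reads and ≥1 read per output were kept after Illumina sequencing of input and output libraries. These libraries were PCR-built, transcribed mutants of each subunit of a heterodimeric triplet polymerase ribozyme, each put through one triplicate in vitro selection round with frozen incubation at −7 °C, gel excision of extended constructs, streptavidin-bead capture and RT-PCR. Fitness is a logarithmic ratio of genotype enrichment to wild-type enrichment, from inverse-variance-weighted replicate averages, with the logarithm in base 2.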
row,Variant,polymerase ribozyme fitness (log ratio)
1,C85A A97U,-2.65
2,G83C G140U,-4.01
3,G80A C85U C118A,-0.52
4,G84A G117A C129A,-2.45
5,C85A U130G,-3.53
6,C85G C96A A97G U102A C132A U135A,≤ -4.2
7,U82C U90G,≤ -4.2
8,G84U G126A G136U,-3.56
9,C85A A106C G140C,≤ -4.2
10,G80C G81C C96A U134A,≤ -4.2
11,G83A C93U A121U,-2.08
12,C85A C105U G141C,-3.45
13,C85G A107G,≤ -4.2
14,C85G C103A,≤ -4.2
15,G80C U82G C87U C99G,0.273
16,C79U C87A C96U A98C G141C,≤ -4.2
17,C85U A120G A150C,-3.75
18,G80U A119C C123A,-1.18
19,G84A U102A C132U,-2.3
20,U82G C105U,1.06
21,G84A G94C,-1.72
22,U82A G88A A115U A121U,≤ -4.2
23,C85G U104C,-2.69
24,C85G U104A,-2.4

row,Variant,polymerase ribozyme fitness (log ratio)
1,U82A C105U,0.242
2,C85A U135G,≤ -4.2
3,C79U G94C,-3.64
4,G83A C93U A107G,≤ -4.2
5,G80A C85A A138G,-3.67
6,G83U C93G A121U,≤ -4.2
7,U82A C93U A110G,-4.09
8,C85G A98U G124U A147C,-2.53
9,C85A G117U,-0.587
10,C79U G100A A115C,-1.13
11,C85A C103A,-4.12
12,C85A C103G,-3.36
13,U82A C85G,-3.05
14,G84U C87G,-3.88
15,G80C C85U,-3.96
16,G83U C114G A115U A119U U134A,≤ -4.2
17,G84A A115U U134G,-4.01
18,G84A A142U,-0.702
19,C85A C96G,-2.42
20,C85A C96U,-2.63
21,G83C A121G,-0.25
22,U82G G92C A113U,-3
23,G84A G94A C125A,-1.7
24,G81C C93G A113C C116U G117A C129A,≤ -4.2

row,Variant,polymerase ribozyme fitness (log ratio)
1,G80C C87G C103G G143C,≤ -4.2
2,G81C C87U G100C G117A G126C,≤ -4.2
3,G84A G152A,-2.93
4,U82A C96A A110G A137G,-3.99
5,G84A U102C C105A A107G,≤ -4.2
6,G84A U102G C125G,-3.78
7,G84A C116A,0.83
8,C85A C108U,-3.66
9,C85A C96A G128C,-4.03
10,C85A C87G G88C A97G U130G G141C,≤ -4.2
11,C85A C103A C125A,-3.33
12,U82G C93U G141A,-0.284
13,G80C A115U,≤ -4.2
14,C85A G143A,-1.99
15,G80U G86U U111C,≤ -4.2
16,C85U C118G C125A,-0.0117
17,U82G A142C,-0.83
18,C85G U102A G133U A137U G141C,-3.8
19,G80A A97G,-1.88
20,G81U A98U C116A,0.542
21,C85A G133C U134G U145G,≤ -4.2
22,U82G A107U,-2.6
23,G83A G117C,-0.0387
24,G84A C108U,-2.74

row,Variant,polymerase ribozyme fitness (log ratio)
1,G83A C125U,-1.29
2,C79U C96U,-3.43
3,G80U G94A C96A U101A C149A,≤ -4.2
4,G83U A91U A120U A138U,≤ -4.2
5,C85U C95A G117C,-0.698
6,G80A C99G G124A,-0.389
7,G84A C93G C125A G133U,≤ -4.2
8,C85U C108G G143A A150G,-3.95
9,U82G G92C,-1.23
10,G83C C85U C87U,-2.71
11,G84A C87G A110G,≤ -4.2
12,U82A C108U,-2.39
13,G84U C99U,-1
14,G81C G117C G143U,-4.1
15,G84A U109A A115C C123A,-1.8
16,G81C G112A A137U U148A,≤ -4.2
17,G84A U109G C114G U135G,≤ -4.2
18,G80C A113G U134A,≤ -4.2
19,U82A G83A C99U G117A U144A,-2.53
20,G83A C118U G126A,-2.89
21,G80C G128C,-3.87
22,C85G G112C A138U C149A,≤ -4.2
23,G80A G83C,-3.01
24,C85U A119U A138C U145A,-3.86

row,Variant,polymerase ribozyme fitness (log ratio)
1,G83C G86A C95A A120C,≤ -4.2
2,G83U C103U C116A G117A U148A,≤ -4.2
3,C85G U144A C149U,-3.7
4,G84A U101C U146A,-0.212
5,G84C U101A A122G G126U,-3.41
6,C85G A98U,-2.9
7,C85G A98G,-0.929
8,G83A A119C A120U C149U,-1.37
9,G83C C87G C114U A120U A138G,≤ -4.2
10,G84A G143A,-1.65
11,G83C U104G C118A,-3.08
12,G81C G88A A107C C125A C131U,≤ -4.2
13,G83U G141C,-1.18
14,C85G C105U,-1.58
15,C85U A121C G141U,2.08
16,C85G C103A G140U,≤ -4.2
17,G84A A147G,-2.67
18,C85U A89U,-0.431
19,G84U U102G A110G,≤ -4.2
20,G83C U102G,-4.12
21,G81C A107U,-3.29
22,G84A A91G A122C,-3.61
23,U82C C93G,-3.99
24,G83C C95U,-1.81

row,Variant,polymerase ribozyme fitness (log ratio)
1,G81A G92C C99U G124C G133U,≤ -4.2
2,G80A C85G C116G,-2.05
3,U82G A115U,-1.61
4,G80A A91G A122U,-2.08
5,U82G A91U C114A A119U A121C G133C,≤ -4.2
6,C85A G86U A110C C131A,≤ -4.2
7,G83A C87U A106C C125G G152A,-3.25
8,G81A C96A A98C,-0.656
9,G80U G86U G100A,≤ -4.2
10,G81C C93A,-2.57
11,G81C C93G,-3.69
12,G80C G88C C103A A122U A138G,≤ -4.2
13,G84U G141C,-2.49
14,G83C C118A,-1.14
15,G83A C116U,-0.551
16,C79U G141A,-2.05
17,G83C A97U C103G U139C,≤ -4.2
18,C85A C96A U101C G143A,≤ -4.2
19,G84U G88A,-4.15
20,C85G A121U,-3.11
21,U82G C85A A89G G133A A142C,≤ -4.2
22,G83A G92U A119G A122C C149G,-4.14
23,G83C A113U U145C,-3.3
24,C79U U102C,≤ -4.2

row,Variant,polymerase ribozyme fitness (log ratio)
1,C85G C87U,-3.28
2,C85U C118G,-0.62
3,C85U A107U A138G A142G,≤ -4.2
4,G84C U102A A147U,-3.01
5,G84A U101G A122U U146C,-0.376
6,C79U G80C C85U C93U,≤ -4.2
7,G84A A98U,-0.469
8,C85A U104A A115G,-3.42
9,U82G G133C G140A,-3.39
10,G83U G94A U127C,-3.92
11,G80U C93G,-2.97
12,G81A C118G,-1.67
13,G84A C103G,-2.32
14,G84A C103U,-2.51
15,G83A C96U,-0.419
16,G80A G92U A97G,-0.375
17,C85U A115C,-0.617
18,G81A C95A C103A,-2.93
19,G83C A107U G143A U146C,≤ -4.2
20,G84A G141A,-0.675
21,C79U G83A A107G A110G U144G,≤ -4.2
22,G80C C87A A89C A97G U102C A137G A138G U151A,≤ -4.2
23,G84C C118A C125U G136U,-4.09
